Test results: the supplement of paper PMC5998384

How the values were obtained:
HeLa Kyoto [1] = test: solubility change mitosis vs G1/S (difference of NP-40 vs SDS log2 ratios) (log2 ratio difference); higher = more soluble in mitosis
HeLa Kyoto [2] = test: solubility in G1/S (NP-40 vs SDS abundance) (log2 ratio); higher = more soluble; conditions: cell cycle stage: G1/S
HeLa Kyoto [3] = test: thermal stability score vs G1/S (z-score of summed log2 fold changes over temperatures); higher = more thermally stable than in G1/S
HeLa Kyoto [4] = test: melting temperature (median over replicates), in situ; higher = more thermally stable
[5] = cell cycle stage: early G1 (4.5 h after nocodazole release)
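Throughout, for melting temperature (median over replicates), in situ: HeLa Kyoto cells synchronized by double thymidine or nocodazole block, proteins quantified by TMT10plex mass spectrometry, three independent biological replicates.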
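Throughout, for solubility change mitosis vs G1/S (difference of NP-40 vs SDS log2 ratios): synchronized HeLa Kyoto cells (double thymidine block for G1/S, nocodazole release for mitosis), protein amounts in NP-40 versus SDS lysates quantified by mass spectrometry, three biological replicates.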
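Throughout, for solubility in G1/S (NP-40 vs SDS abundance): HeLa Kyoto cells arrested at G1/S by double thymidine block, proteins quantified by TMT10plex mass spectrometry in mild NP-40 versus SDS extracts, three biological replicates.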
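Throughout, for thermal stability score vs G1/S (z-score of summed log2 fold changes over temperatures): synchronized HeLa Kyoto cells, proteins quantified by TMT10plex mass spectrometry, three biological replicates, mitosis taken 0.5 h after nocodazole release, G1/S directly after double thymidine block.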

Row | Substance | solubility change mitosis (log2) (HeLa Kyoto [1]) | solubility in G1/S (log2) (HeLa Kyoto [2]) | thermal stability score (HeLa Kyoto [3]; [5]) | thermal stability score (HeLa Kyoto [3]; cell cycle stage: mitosis) | melting temperature (HeLa Kyoto [4]; cell cycle stage: G1/S) | melting temperature (HeLa Kyoto [4]; cell cycle stage: mitosis)
1 | MAAPSGGWNGVGASLWAALLLGAVALRPAEAVSEPTTVAFDVRPGGVVHSFSHNVGPGDKYTCMFTYASQGGTNEQWQMSLGTSEDHQHFTCTIWRPQGKSYLYFTQFKAEVRGAEIEYAMAYSKAAFERESDVPLKTEEFEVTKTAVAHRPGAFKAELSKLVIVAKASRTEL [MYDGF] | -0.192 | 0.19 | 2.14 | 0.789 | 57.7 °C | 57.7 °C
2 | MAETSEEVAVLVQRVVKDITNAFRRNPHIDEIGLIPCPEARYNRSPIVLVENKLGVESWCVKFLLPYVHNKLLLYRTRKQWLNRDELIDVTCTLLLLNPDFTTAWNVRKELILSGTLNPIKDLHLGKLALTKFPKSPETWIHRRWVLQQLIQETSLPSFVTKGNLGTIPTERAQRLIQEEMEVCGEAAGRYPSNYNAWSHRIWVLQHLAKLDVKILLDELSSTKHWASMHVSDHSGFHYRQFLLKSLISQTVIDSSVMEQNPLRSEPALVPPKDEEAAVSTEEPRINLPHLLEEEVEFSTDLIDSYPGHETLWCHRRHIFYLQHHLNAGSQLSQAMEVDGLNDSSKQGYSQETKRLKRTPVPDSLGLEMEHRFIDQVLSTCRNVEQARFASAYRKWLVTLSQ [PTAR1] | -0.125 | 0.0716 | -1.63 | -2.24 | 53 °C | 52.1 °C
3 | CLPX | -0.0641 | 0.103 | 2.55 | 0.77 | 50.6 °C | 50.2 °C
4 | MVSKMIIENFEALKSWLSKTLEPICDADPSALAKYVLALVKKDKSEKELKALCIDQLDVFLQKETQIFVEKLFDAVNTKSYLPPPEQPSSGSLKVEFFPHQEKDIKKEEITKEEEREKKFSRRLNHSPPQSSSRYRENRSRDERKKDDRSRKRDYDRNPPRRDSYRDRYNRRRGRSRSYSRSRSRSWSKERLRERDRDRSRTRSRSRTRSRERDLVKPKYDLDRTDPLENNYTPVSSVPSISSGHYPVPTLSSTITVIAPTHHGNNTTESWSEFHEDQVDHNSYVRPPMPKKRCRDYDEKGFCMRGDMCPFDHGSDPVVVEDVNLPGMLPFPAQPPVVEGPPPPGLPPPPPILTPPPVNLRPPVPPPGPLPPSLPPVTGPPPPLPPLQPSGMDAPPNSATSSVPTVVTTGIHHQPPPAPPSLFTADTYDTDGYNPEAPSITNTSRPMYRHRVHAQRPNLIGLTSGDMDLPPREKPPNKSSMRIVVDSESRKRTIGSGEPGVPTKKTWFDKPNFNRTNSPGFQKKVQFGNENTKLELRKVPPELNNISKLNEHFSRFGTLVNLQVAYNGDPEGALIQFATYEEAKKAISSTEAVLNNRFIKVYWHREGSTQQLQTTSPKVMQPLVQQPILPVVKQSVKERLGPVPSSTIEPAEAQSASSDLPQNVTKLSVKDRLGFVSKPSVSATEKVLSTSTGLTKTVYNPAALKAAQKTLLVSTSAVDNNEAQKKKQEALKLQQDVRKRKQEILEKHIETQKMLISKLEKNKTMKSEDKAEIMKTLEVLTKNITKLKDEVKAASPGRCLPKSIKTKTQMQKELLDTELDLYKKMQAGEEVTELRRKYTELQLEAAKRGILSSGRGRGIHSRGRGAVHGRGRGRGRGRGVPGHAVVDHRPRALEISAFTESDREDLLPHFAQYGEIEDCQIDDSSLHAVITFKTRAEAEAAAVHGARFKGQDLKLAWNKPVTNISAVETEEVEPDEEEFQEESLVDDSLLQDDDEEEEDNESRSWRR [RBM26] | 0.0367 | -0.109 | 1.92 | 4.06 | 47 °C | 48.9 °C
5 | MEFYESAYFIVLIPSIVITVIFLFFWLFMKETLYDEVLAKQKREQKLIPTKTDKKKAEKKKNKKKEIQNGNLHESDSESVPRDFKLSDALAVEDDQVAPVPLNVVETSSSVRERKKKEKKQKPVLEEQVIKESDASKIPGKKVEPVPVTKQPTPPSEAAASKKKPGQKKSKNGSDDQDKKVETLMVPSKRQEALPLHQETKQESGSGKKKASSKKQKTENVFVDEPLIHATTYIPLMDNADSSPVVDKREVIDLLKPDQVEGIQKSGTKKLKTETDKENAEVKFKDFLLSLKTMMFSEDEALCVVDLLKEKSGVIQDALKKSSKGELTTLIHQLQEKDKLLAAVKEDAAATKDRCKQLTQEMMTEKERSNVVITRMKDRIGTLEKEHNVFQNKIHVSYQETQQMQMKFQQVREQMEAEIAHLKQENGILRDAVSNTTNQLESKQSAELNKLRQDYARLVNELTEKTGKLQQEEVQKKNAEQAATQLKVQLQEAERRWEEVQSYIRKRTAEHEAAQQDLQSKFVAKENEVQSLHSKLTDTLVSKQQLEQRLMQLMESEQKRVNKEESLQMQVQDILEQNEALKAQIQQFHSQIAAQTSASVLAEELHKVIAEKDKQIKQTEDSLASERDRLTSKEEELKDIQNMNFLLKAEVQKLQALANEQAAAAHELEKMQQSVYVKDDKIRLLEEQLQHEISNKMEEFKILNDQNKALKSEVQKLQTLVSEQPNKDVVEQMEKCIQEKDEKLKTVEELLETGLIQVATKEEELNAIRTENSSLTKEVQDLKAKQNDQVSFASLVEELKKVIHEKDGKIKSVEELLEAELLKVANKEKTVQDLKQEIKALKEEIGNVQLEKAQQLSITSKVQELQNLLKGKEEQMNTMKAVLEEKEKDLANTGKWLQDLQEENESLKAHVQEVAQHNLKEASSASQFEELEIVLKEKENELKRLEAMLKERESDLSSKTQLLQDVQDENKLFKSQIEQLKQQNYQQASSFPPHEELLKVISEREKEISGLWNELDSLKDAVEHQRKKNNDLREKNWEAMEALASTEKMLQDKVNKTSKERQQQVEAVELEAKEVLKKLFPKVSVPSNLSYGEWLHGFEKKAKECMAGTSGSEEVKVLEHKLKEADEMHTLLQLECEKYKSVLAETEGILQKLQRSVEQEENKWKVKVDESHKTIKQMQSSFTSSEQELERLRSENKDIENLRREREHLEMELEKAEMERSTYVTEVRELKDLLTELQKKLDDSYSEAVRQNEELNLLKAQLNETLTKLRTEQNERQKVAGDLHKAQQSLELIQSKIVKAAGDTTVIENSDVSPETESSEKETMSVSLNQTVTQLQQLLQAVNQQLTKEKEHYQVLE [KTN1] | 0.0644 | 0.422 | 5.06 | 7.49 | 50 °C | 50.6 °C
6 | MTSKQAMSSNEQERLLCYNGEVLVFQLSKGNFADKEPTKTPILHVRRMVFDRGTKVFVQKSTGFFTIKEENSHLKIMCCNCVSDFRTGINLPYIVIEKNKKNNVFEYFLLILHSTNKFEMRLSFKLGYEMKDGLRVLNGPLILWRHVKAFFFISSQTGKVVSVSGNFSSIQWAGEIENLGMVLLGLKECCLSEEECTQEPSKSDYAIWNTKFCVYSLESQEVLSDIYIIPPAYSSVVTYVHICATEIIKNQLRISLIALTRKNQLISFQNGTPKNVCQLPFGDPCAVQLMDSGGGNLFFVVSFISNNACAVWKESFQVAAKWEKLSLVLIDDFIGSGTEQVLLLFKDSLNSDCLTSFKITDLGKINYSSEPSDCNEDDLFEDKQENRYLVVPPLETGLKVCFSSFRELRQHLLLKEKIISKSYKALINLVQGKDDNTSSAEEKECLVPLCGEEENSVHILDEKLSDNFQDSEQLVEKIWYRVIDDSLVVGVKTTSSLKLSLNDVTLSLLMDQAHDSRFRLLKCQNRVIKLSTNPFPAPYLMPCEIGLEAKRVTLTPDSKKEESFVCEHPSKKECVQIITAVTSLSPLLTFSKFCCTVLLQIMERESGNCPKDRYVVCGRVFLSLEDLSTGKYLLTFPKKKPIEHMEDLFALLAAFHKSCFQITSPGYALNSMKVWLLEHMKCEIIKEFPEVYFCERPGSFYGTLFTWKQRTPFEGILIIYSRNQTVMFQCLHNLIRILPINCFLKNLKSGSENFLIDNMAFTLEKELVTLSSLSSAIAKHESNFMQRCEVSKGKSSVVAAALSDRRENIHPYRKELQREKKKMLQTNLKVSGALYREITLKVAEVQLKSDFAAQKLSNL [FANCB] | -0.0928 | -0.208 | 1.37 | 0.274 | 53.7 °C | 53.8 °C
7 | MREIVHIQAGQCGNQIGTKFWEVISDEHGIDPAGGYVGDSALQLERINVYYNESSSQKYVPRAALVDLEPGTMDSVRSGPFGQLFRPDNFIFGQTGAGNNWAKGHYTEGAELVDAVLDVVRKECEHCDCLQGFQLTHSLGGGTGSGMGTLLISKIREEFPDRIMNTFSVMPSPKVSDTVVEPYNATLSVHQLVENTDETYCIDNEALYDICFRTLKLTTPTYGDLNHLVSATMSGVTTSLRFPGQLNADLRKLAVNMVPFPRLHFFMPGFAPLTSRGSQQYRALTVPELTQQMFDARNMMAACDPRHGRYLTVATVFRGPMSMKEVDEQMLAIQSKNSSYFVEWIPNNVKVAVCDIPPRGLKMASTFIGNSTAIQELFKRISEQFSAMFRRKAFLHWFTGEGMDEMEFTEAESNMNDLVSEYQQYQDATANDGEEAFEDEEEEIDG [TUBB6] | -0.124 | 0.0985 | -0.862 | -2.31 | 54.8 °C | 53.8 °C
8 | MARFALTVVRHGETRFNKEKIIQGQGVDEPLSETGFKQAAAAGIFLNNVKFTHAFSSDLMRTKQTMHGILERSKFCKDMTVKYDSRLRERKYGVVEGKALSELRAMAKAAREECPVFTPPGGETLDQVKMRGIDFFEFLCQLILKEADQKEQFSQGSPSNCLETSLAEIFPLGKNHSSKVNSDSGIPGLAASVLVVSHGAYMRSLFDYFLTDLKCSLPATLSRSELMSVTPNTGMSLFIINFEEGREVKPTVQCICMNLQDHLNGLTETR [TIGAR] | -0.0797 | 0.348 | -0.092 | 0.286 | 50.2 °C | 50.3 °C
9 | MAAGGSTQQRRREMAAASAAAISGAGRCRLSKIGATRRPPPARVRVAVRLRPFVDGTAGASDPPCVRGMDSCSLEIANWRNHQETLKYQFDAFYGERSTQQDIYAGSVQPILRHLLEGQNASVLAYGPTGAGKTHTMLGSPEQPGVIPRALMDLLQLTREEGAEGRPWALSVTMSYLEIYQEKVLDLLDPASGDLVIREDCRGNILIPGLSQKPISSFADFERHFLPASRNRTVGATRLNQRSSRSHAVLLVKVDQRERLAPFRQREGKLYLIDLAGSEDNRRTGNKGLRLKESGAINTSLFVLGKVVDALNQGLPRVPYRDSKLTRLLQDSLGGSAHSILIANIAPERRFYLDTVSALNFAARSKEVINRPFTNESLQPHALGPVKLSQKELLGPPEAKRARGPEEEEIGSPEPMAAPASASQKLSPLQKLSSMDPAMLERLLSLDRLLASQGSQGAPLLSTPKRERMVLMKTVEEKDLEIERLKTKQKELEAKMLAQKAEEKENHCPTMLRPLSHRTVTGAKPLKKAVVMPLQLIQEQAASPNAEIHILKNKGRKRKLESLDALEPEEKAEDCWELQISPELLAHGRQKILDLLNEGSARDLRSLQRIGPKKAQLIVGWRELHGPFSQVEDLERVEGITGKQMESFLKANILGLAAGQRCGAS [KIF22] | 0.342 | -0.459 | 1.72 | 2.31 | 50 °C | 48.2 °C
10 | MDPLGDTLRRLREAFHAGRTRPAEFRAAQLQGLGRFLQENKQLLHDALAQDLHKSAFESEVSEVAISQGEVTLALRNLRAWMKDERVPKNLATQLDSAFIRKEPFGLVLIIAPWNYPLNLTLVPLVGALAAGNCVVLKPSEISKNVEKILAEVLPQYVDQSCFAVVLGGPQETGQLLEHRFDYIFFTGSPRVGKIVMTAAAKHLTPVTLELGGKNPCYVDDNCDPQTVANRVAWFRYFNAGQTCVAPDYVLCSPEMQERLLPALQSTITRFYGDDPQSSPNLGRIINQKQFQRLRALLGCGRVAIGGQSDESDRYIAPTVLVDVQEMEPVMQEEIFGPILPIVNVQSLDEAIEFINRREKPLALYAFSNSSQVVKRVLTQTSSGGFCGNDGFMHMTLASLPFGGVGASGMGRYHGKFSFDTFSHHRACLLRSPGMEKLNALRYPPQSPRRLRMLLVAMEAQGCSCTLL [ALDH3B1] | -0.152 | 0.252 | 0.958 | 1.14 | 52.2 °C | 51.8 °C
11 | MAEQEPTAEQLAQIAAENEEDEHSVNYKPPAQKSIQEIQELDKDDESLRKYKEALLGRVAVSADPNVPNVVVTGLTLVCSSAPGPLELDLTGDLESFKKQSFVLKEGVEYRIKISFRVNREIVSGMKYIQHTYRKGVKIDKTDYMVGSYGPRAEEYEFLTPVEEAPKGMLARGSYSIKSRFTDDDKTDHLSWEWNLTIKKDWKD [ARHGDIA] | -0.109 | 0.25 | 0.408 | -2.01 | 51.5 °C | 51.7 °C
